Results as given in the supplement of paper PMC10126150.
± gives the standard deviation of the averaged measurements.

System: ATP
Experiment: switch fluorescence ratio, 500 uM ATP over buffer (Cy3 cluster intensity, sum of 5 cycles each) (fold (ratio)); higher = stronger signal-on switching upon ATP binding; sequences stand for … in TCGTCGGCAGCGTCAGATGTGTATAAGAGACAGTTTTTTTTTTTTTTTTTTTTTTTTT…TC
Settings: aptamer strand: ATP DNA aptamer (quencher-CACCTGGGGGAGTATTGCGGAGGAAGG + anchor), 100 nM annealed; ATP concentration: 500 uM
Method in brief: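 Exposure to 500 uM ATP lasted 15 min at 22 °C before imaging, and a selection-buffer image was taken beforehand, for Cy3-labelled switching-strand clusters on a modified Illumina MiSeq flow-cell annealed to 100 nM quencher-labelled ATP aptamer. Five buffer/ATP cycles were run with NaOH stripping and re-annealing between them. The fluorescence ratio per cluster is summed target-cycle over summed buffer-cycle Cy3 intensity, averaged per switch-domain sequence. Clusters outside 100-1000 RFU were excluded.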

GCATTTCAGG
switch fluorescence ratio: 0.98822 ± 0.00033

GCATTTGGCT
switch fluorescence ratio: 1.027 ± 0.0064

GCCAAAGGTG
switch fluorescence ratio: 1.72 ± 0.12

GCCAACGGGG
switch fluorescence ratio: 1 ± 0.028

GCCAATTTGC
switch fluorescence ratio: 1.02 ± 0.07

GCCAGATAGG
switch fluorescence ratio: 0.9562 ± 0.0088

GCCAGGGACG
switch fluorescence ratio: 1.02 ± 0.028

GCCAGTATCC
switch fluorescence ratio: 0.997 ± 0.014

GCCAGTTTGC
switch fluorescence ratio: 0.998 ± 0.015

GCCAGTTTGG
switch fluorescence ratio: 0.9916 ± 0.0052

GCCATCAAGA
switch fluorescence ratio: 0.995 ± 0.062

GCCATCGAAT
switch fluorescence ratio: 1 ± 0.021

GCCATGTTGA
switch fluorescence ratio: 1.02 ± 0.0063

GCCATTAGCA
switch fluorescence ratio: 1.022 ± 0.005

GCCATTGAGG
switch fluorescence ratio: 0.9668 ± 0.0031

GCCCATTTCT
switch fluorescence ratio: 1.03 ± 0.039

GCCCATTTTT
switch fluorescence ratio: 0.978 ± 0.011

GCCCCGGGGG
switch fluorescence ratio: 1.1 ± 0.046

GCCCGATCAC
switch fluorescence ratio: 1.151 ± 0.0086

GCCCGCCACA
switch fluorescence ratio: 1.06 ± 0.041

GCCCGGGGGG
switch fluorescence ratio: 1.03 ± 0.0083

GCCCGGTCGG
switch fluorescence ratio: 0.953 ± 0.017

GCCCGTATGC
switch fluorescence ratio: 1.07 ± 0.011

GCCCTACAAC
switch fluorescence ratio: 0.998 ± 0.012

GCCCTGAGCA
switch fluorescence ratio: 1.01 ± 0.026

GCCCTTGTCA
switch fluorescence ratio: 1.01 ± 0.019

GCCCTTTCGT
switch fluorescence ratio: 1.032 ± 0.0021

GCCCTTTTAC
switch fluorescence ratio: 1.19 ± 0.074

GCCCTTTTTT
switch fluorescence ratio: 1 ± 0.046

GCCGAGCCGG
switch fluorescence ratio: 0.972 ± 0.011

GCCGAGCTCT
switch fluorescence ratio: 0.996 ± 0.024

GCCGATGCTG
switch fluorescence ratio: 0.978 ± 0.042

GCCGATTACG
switch fluorescence ratio: 1.02 ± 0.033

GCCGATTATA
switch fluorescence ratio: 1 ± 0.00097

GCCGCACGGA
switch fluorescence ratio: 1.13 ± 0.045

GCCGCAGCTA
switch fluorescence ratio: 3.05 ± 0.15

GCCGCTATTT
switch fluorescence ratio: 1.43 ± 0.18

GCCGGACAGT
switch fluorescence ratio: 1 ± 0.017

GCCGGATTCG
switch fluorescence ratio: 1.02 ± 0.013

GCCGGATTGA
switch fluorescence ratio: 1.02 ± 0.041

GCCGGCAATT
switch fluorescence ratio: 1.01 ± 0.015

GCCGGGACTA
switch fluorescence ratio: 1.01 ± 0.024

GCCGGGATTG
switch fluorescence ratio: 0.976 ± 0.029

GCCGGGGGTT
switch fluorescence ratio: 1.2 ± 0.21

GCCGGGTACG
switch fluorescence ratio: 0.992 ± 0.029

GCCGGGTTGA
switch fluorescence ratio: 1.03 ± 0.048

GCCGGTTATC
switch fluorescence ratio: 1 ± 0.017

GCCGGTTTTG
switch fluorescence ratio: 1.01 ± 0.017

GCCGTCTTGA
switch fluorescence ratio: 1.01 ± 0.041

GCCGTGTAGA
switch fluorescence ratio: 1.05 ± 0.021

GCCTACAACA
switch fluorescence ratio: 1.02 ± 0.029

GCCTACATTA
switch fluorescence ratio: 0.997 ± 0.022

GCCTCATAGG
switch fluorescence ratio: 0.994 ± 0.019

GCCTCGGGGG
switch fluorescence ratio: 0.953 ± 0.021

GCCTGAAAGG
switch fluorescence ratio: 0.993 ± 0.022

GCCTGAGCTG
switch fluorescence ratio: 1.024 ± 0.0094

GCCTGGGGGC
switch fluorescence ratio: 0.967 ± 0.019

GCCTGGTGTC
switch fluorescence ratio: 1.27 ± 0.055

GCCTGTATTG
switch fluorescence ratio: 0.982 ± 0.027

GCCTGTGGGG
switch fluorescence ratio: 0.977 ± 0.019

GCCTTAGAGT
switch fluorescence ratio: 1.03 ± 0.051

GCCTTAGCCG
switch fluorescence ratio: 0.972 ± 0.019

GCCTTAGGTG
switch fluorescence ratio: 1.4 ± 0.12

GCCTTGAAGT
switch fluorescence ratio: 1 ± 0.013

GCCTTGATAG
switch fluorescence ratio: 0.981 ± 0.0086

GCCTTGGTGC
switch fluorescence ratio: 1.08 ± 0.018

GCCTTTCAAT
switch fluorescence ratio: 1.024 ± 0.0015

GCCTTTGGCT
switch fluorescence ratio: 0.996 ± 0.049

GCCTTTTGCA
switch fluorescence ratio: 1.01 ± 0.03

GCCTTTTTTA
switch fluorescence ratio: 0.996 ± 0.016

GCGAAAACAG
switch fluorescence ratio: 1 ± 0.088

GCGAAAAGGA
switch fluorescence ratio: 1.02 ± 0.011

GCGAACGGAG
switch fluorescence ratio: 0.998 ± 0.011

GCGAATATCT
switch fluorescence ratio: 1.02 ± 0.037

GCGACGGGAG
switch fluorescence ratio: 1.01 ± 0.013

GCGACTAGGT
switch fluorescence ratio: 1.03 ± 0.028

GCGAGACTGT
switch fluorescence ratio: 1.07 ± 0.04

GCGAGATGGG
switch fluorescence ratio: 0.9735 ± 0.0013

GCGAGCGTCC
switch fluorescence ratio: 1.025 ± 0.0023

GCGAGGGCAA
switch fluorescence ratio: 1.72 ± 0.052

GCGAGGGGGT
switch fluorescence ratio: 0.979 ± 0.054

GCGAGTTGGG
switch fluorescence ratio: 0.985 ± 0.022

GCGATAAATT
switch fluorescence ratio: 0.983 ± 0.045

GCGATAATTT
switch fluorescence ratio: 0.9975 ± 0.0076

GCGATACGCA
switch fluorescence ratio: 1.07 ± 0.041

GCGATCAGAC
switch fluorescence ratio: 1.15 ± 0.015

GCGATGGAAT
switch fluorescence ratio: 1.1282 ± 6e-05

GCGATGGCTG
switch fluorescence ratio: 0.957 ± 0.015

GCGATTAGTT
switch fluorescence ratio: 0.9711 ± 0.0012

GCGATTGGCT
switch fluorescence ratio: 1.06 ± 0.018

GCGATTTAGA
switch fluorescence ratio: 0.994 ± 0.016

GCGATTTTTA
switch fluorescence ratio: 1.09 ± 0.089

GCGCAGGTAA
switch fluorescence ratio: 1.04 ± 0.013

GCGCAGTGGC
switch fluorescence ratio: 1.23 ± 0.058

GCGCCAAGGA
switch fluorescence ratio: 1.08 ± 0.09

GCGCCAGTTT
switch fluorescence ratio: 0.992 ± 0.02

GCGCCCATCT
switch fluorescence ratio: 1.02 ± 0.017

GCGCCTTGTG
switch fluorescence ratio: 0.988 ± 0.018

GCGCGAGGGG
switch fluorescence ratio: 1.01 ± 0.02

GCGCGATGGA
switch fluorescence ratio: 1.03 ± 0.019

GCGCGGGGGG
switch fluorescence ratio: 1.02 ± 0.03

GCGCGTAGGC
switch fluorescence ratio: 1 ± 0.021

GCGCGTCGCA
switch fluorescence ratio: 1.02 ± 0.025

GCGCGTGGAG
switch fluorescence ratio: 1.04 ± 0.03

GCGCTCGAGT
switch fluorescence ratio: 1.018 ± 0.0074

GCGCTCTTAT
switch fluorescence ratio: 1.001 ± 0.003

GCGCTGCATT
switch fluorescence ratio: 1.06 ± 0.037

GCGCTTAAAT
switch fluorescence ratio: 1.03 ± 0.057

GCGGACCCTC
switch fluorescence ratio: 1.03 ± 0.05

GCGGACTAGT
switch fluorescence ratio: 0.9883 ± 0.0052

GCGGAGAGAG
switch fluorescence ratio: 0.998 ± 0.019

GCGGAGGCGG
switch fluorescence ratio: 0.976 ± 0.031

GCGGAGGGGC
switch fluorescence ratio: 1.0106 ± 3e-05

GCGGAGGGTG
switch fluorescence ratio: 1.028 ± 0.0092

GCGGATGTAG
switch fluorescence ratio: 1.01 ± 0.03

GCGGATTAGG
switch fluorescence ratio: 1.03 ± 0.0072

GCGGCACATA
switch fluorescence ratio: 1.09 ± 0.042

GCGGCAGGGA
switch fluorescence ratio: 0.997 ± 0.049

GCGGCGCTTA
switch fluorescence ratio: 1.02 ± 0.016

GCGGCGGGTT
switch fluorescence ratio: 1.04 ± 0.064

GCGGCGGTGC
switch fluorescence ratio: 1.02 ± 0.031

GCGGCTGATG
switch fluorescence ratio: 1.02 ± 0.012

GCGGGAATTG
switch fluorescence ratio: 0.981 ± 0.023

GCGGGAGGTC
switch fluorescence ratio: 1.03 ± 0.013

GCGGGATGCA
switch fluorescence ratio: 0.993 ± 0.033

GCGGGCCTGG
switch fluorescence ratio: 1.01 ± 0.037

GCGGGCTGGA
switch fluorescence ratio: 1.01 ± 0.044

GCGGGGAAAT
switch fluorescence ratio: 0.971 ± 0.021

GCGGGGAATT
switch fluorescence ratio: 1.02 ± 0.026

GCGGGGCTAG
switch fluorescence ratio: 0.989 ± 0.024

GCGGGGGATC
switch fluorescence ratio: 1 ± 0.03

GCGGGGGCAA
switch fluorescence ratio: 1.0292 ± 0.00013

GCGGGGGGAG
switch fluorescence ratio: 1.02 ± 0.043

GCGGGGGGGT
switch fluorescence ratio: 1.01 ± 0.038

GCGGGGGGTT
switch fluorescence ratio: 1.01 ± 0.038

GCGGGGGTG
switch fluorescence ratio: 1.01 ± 0.013

GCGGGGGTTG
switch fluorescence ratio: 0.978 ± 0.039

GCGGGGTAGG
switch fluorescence ratio: 1.015 ± 0.0099

GCGGGGTCGG
switch fluorescence ratio: 1.0083 ± 0.00048

GCGGGGTCTG
switch fluorescence ratio: 0.985 ± 0.04

GCGGGGTTGC
switch fluorescence ratio: 1.03 ± 0.033

GCGGGTGGGG
switch fluorescence ratio: 1.05 ± 0.029

GCGGGTTAAA
switch fluorescence ratio: 0.991 ± 0.012

GCGGTAAGGG
switch fluorescence ratio: 1.016 ± 0.004

GCGGTACGCG
switch fluorescence ratio: 0.953 ± 0.012

GCGGTACGGT
switch fluorescence ratio: 1.03 ± 0.039

GCGGTAGGG
switch fluorescence ratio: 1.02 ± 0.0055

GCGGTCAAAT
switch fluorescence ratio: 1.005 ± 0.0018

GCGGTCCGTT
switch fluorescence ratio: 0.9614 ± 0.0012

GCGGTGAGGG
switch fluorescence ratio: 0.993 ± 0.052

GCGGTGGGTG
switch fluorescence ratio: 0.994 ± 0.023

GCGGTTCAGC
switch fluorescence ratio: 0.985 ± 0.014

GCGGTTCAGT
switch fluorescence ratio: 1.0109 ± 0.00081
